Assay results as given in patent US20180057581A1.

target: M-CSF endogenously expressed on MDA-MB-231 cells (human) (UniProt P09603); experiment: FACS, MDA-MB-231 cells endogenously expressing M-CSF (n = 2)

Row | EC50 [nM] | Binder
1 | 9 | Laurine, IgG1_D265A (antibody, V domains shown) VH: QVQLQQSGPGLVKPSQTLSLTCAISGDSVSSNSAAWNWIRQSPSRGLEWLGRTYYRSKWKKEYAQSVKSRITINPDTSKNQFSLQLNSVTPEDTAVYYCARDRYYYSAFDYWGQGTLVTVSS VL: DIALTQPASVSGSPGQSITISCTGTSSDVGGYNSVSWYQQHPGKAPKLMIYAVSNRPSGVSNRFSGSKSGNTASLTISGLQAEDEADYYCASYDERFTRVFGGGTKLTVLG
2 | 14 | Caline, IgG1_D265A (antibody, V domains shown) VH: QVQLQQSGPGLVKPSQTLSLTCAISGDSVSSNSAAWNWIRQSPSRGLEWLGRTYYRSKWKHEYAMSVKSRITINPDTSKNQFSLQLNSVTPEDTAVYYCARDRYYYSAFDYWGQGTLVTVSS VL: QSALTQPASVSGSPGQSITISCTGTSSDVGGYNSVSWYQQHPGKAPKLMIYAVSNRPSGVSNRFSGSKSGNTASLTISGLQAEDEADYYCASYDERFTRVFGGGTKLTVLG
3 | 10 | Blanche, IgG1_D265A (antibody, V domains shown) VH: QVQLQQSGPGLVKPSQTLSLTCAISGDSVSSNSAAWNWIRQSPSRGLEWLGRTYYRSKWKHEYAMSVKSRITINPDTSKNQFSLQLNSVTPEDTAVYYCARDRYYYSAFDYWGQGTLVTVSS VL: DIALTQPASVSGSPGQSITISCTGTSSDVGGYNSVSWYQQHPGKAPKLMIYAVSNRPSGVSNRFSGSKSGNTASLTISGLQAEDEADYYCASYDERFTRVFGGGTKLTVLG
4 | 13 | Celine, IgG1_D265A (antibody, V domains shown) VH: QVQLQQSGPGLVKPSQTLSLTCAISGDSVSTSSAAWNWIRQSPSRGLEWLGRTYYRSKWKHEYAVSVKSRITINPDTSKNQFSLQLNSVTPEDTAVYYCARDRYYYSAFDYWGQGTLVTVSS VL: QSALTQPASVSGSPGQSITISCTGTSSDVGGYNSVSWYQQHPGKAPKLIIYAVSNRPSGVSNRFSGSKSGNTASLTISGLQAEDEADYYCASYDERFTRVFGGGTKLTVLG

target: native human M-CSF (in human serum or in MDA-MB-231 conditioned medium) (human), P09603; experiment: cell-based or functional assay
Sequence (P09603 33-255): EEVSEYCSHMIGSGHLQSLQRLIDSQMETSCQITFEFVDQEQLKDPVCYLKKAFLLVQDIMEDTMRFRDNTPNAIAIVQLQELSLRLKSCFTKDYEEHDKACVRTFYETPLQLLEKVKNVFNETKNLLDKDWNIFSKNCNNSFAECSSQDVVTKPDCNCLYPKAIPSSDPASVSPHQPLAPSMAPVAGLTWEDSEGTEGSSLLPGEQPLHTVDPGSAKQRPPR

Row | Binder | IC50, inhibition of M-NFS-60 proliferation induced by MDA-MB-231 conditioned medium [nM] | IC50, inhibition of M-NFS-60 proliferation induced by human serum (50%) [nM] | Cell viability assay (IC50), Human serum M-CSF [nM] | Cell viability assay (IC50), MDA-MB-231 [nM]
5 | Romaine, IgG1_D265A (antibody, V domains shown) VH: EVQLVESGGGLVKPGGSLRLSCAASGFTFSIYAMSWVRQAPGKGLEWVGRIKSNADGGTTEYAAPVKGRFTISRDDSKNTLYLQMNSLKTEDTAVYYCARMRYYSDLYFDPWGQGTLVTVSS VL: DIELTQPPSVSVSPGQTASITCSGDAIGSKYVHWYQQKPGQAPVLVISKDNKRPSGIPERFSGSNSGNTATLTISGTQAEDEADYYCQTATVSSYWWVFGGGTKLTVLGQ | 0.0833 | 0.0252 | – | –
6 | Servane, IgG1_D265A (antibody, V domains shown) VH: EVQLVESGGGLVKPGGSLRLSCAASGFTFSTYAISWVRQAPGKGLEWVGFIKSKHNSGTTEYAAPVKGRFTISRDDSKNTLYLQMNSLKTEDTAVYYCARMRYYSDLYFDPWGQGTLVTVSS VL: SYELTQPPSVSVSPGQTASITCSGDKLGQKYVSWYQQKPGQSPVLVISQDRKRPSGIPERFSGSNSGNTATLTISGTQAEDEADYYCQTWTHLQWVFGGGTKLTVLGQ | 0.107 | 0.0932 | – | –
7 | Satine, IgG1_D265A (antibody, V domains shown) VH: EVQLVESGGGLVKPGGSLRLSCAASGFTFSIYAMSWVRQAPGKGLEWVGRIKSNADGGTTEYAAPVKGRFTISRDDSKNTLYLQMNSLKTEDTAVYYCARMRYYSDLYFDPWGQGTLVTVSS VL: SYELTQPPSVSVSPGQTASITCSGDKLGQKYVSWYQQKPGQSPVLVISQDRKRPSGIPERFSGSNSGNTATLTISGTQAEDEADYYCQTWTHLQWVFGGGTKLTVLGQ | 0.0708 | 0.0318 | – | –
8 | Blanche, IgG1_D265A (antibody, V domains shown) VH: QVQLQQSGPGLVKPSQTLSLTCAISGDSVSSNSAAWNWIRQSPSRGLEWLGRTYYRSKWKHEYAMSVKSRITINPDTSKNQFSLQLNSVTPEDTAVYYCARDRYYYSAFDYWGQGTLVTVSS VL: DIALTQPASVSGSPGQSITISCTGTSSDVGGYNSVSWYQQHPGKAPKLMIYAVSNRPSGVSNRFSGSKSGNTASLTISGLQAEDEADYYCASYDERFTRVFGGGTKLTVLGQ | 0.12 | 0.0183 | – | –
9 | Maelle, IgG1_D265A (antibody, V domains shown) VH: QVQLQQSGPGLVKPSQTLSLTCAISGESVSTSSAAWNWIRQSPSRGLEWLGRTYYRSKWKKEYAQSVKSRITINPDTSKNQFSLQLNSVTPEDTAVYYCARDRYYYSAFDYWGQGTLVTVSS VL: QSALTQPASVSGSPGQSITISCTGTSSDVGGYNSVSWYQQHPGKAPKLIIYAVSNRPSGVSNRFSGSKSGNTASLTISGLQAEDEADYYCASYDERFTRVFGGGTKLTVLGQ | 0.0989 | 0.016 | – | –
10 | Camille (format not stated) (antibody, V domains shown) VH: QVQLQQSGPGLVKPSQTLSLTCAISGESVSTSSAAWNWIRQSPSRGLEWLGRTYYRSKWKHEYAVSVKSRITINPDTSKNQFSLQLNSVTPEDTAVYYCARDRYYYSAFDYWGQGTLVTVSS VL: QSALTQPASVSGSPGQSITISCTGTSSDVGGYNSVSWYQQHPGKAPKLLIYAVSNRPSGVSNRFSGSKSGNTASLTISGLQAEDEADYYCASYDERFTRVFGGGTKLTVLGQ | – | – | 0.018 | 0.099
11 | HeRX1-10G1, IgG1_D265A (antibody, V domains shown) VH: QVQLQESGPGLVKPSQTLSLTCTVSDYSITSDYAWNWIRQFPGKGLEWMGYISYSGSTSYNPSLKSRITISRDTSKNQFSLQLNSVTAADTAVYYCASFDYAHAMDYWGQGTTVTVSS VL: DIVLTQSPAFLSVTPGEKVTFTCQASQSIGTSIHWYQQKTDQAPKLLIKYASESISGIPSRFSGSGSGTDFTLTISSVEAEDAADYYCQQINSWPTTFGGGTKLEIKRT | 0.0591 | 0.0124 | – | –
12 | HeRX1-10G1 (format not stated) (antibody, V domains shown) VH: QVQLQESGPGLVKPSQTLSLTCTVSDYSITSDYAWNWIRQFPGKGLEWMGYISYSGSTSYNPSLKSRITISRDTSKNQFSLQLNSVTAADTAVYYCASFDYAHAMDYWGQGTTVTVSS VL: DIVLTQSPAFLSVTPGEKVTFTCQASQSIGTSIHWYQQKTDQAPKLLIKYASESISGIPSRFSGSGSGTDFTLTISSVEAEDAADYYCQQINSWPTTFGGGTKLEIKRT | – | – | 0.015 | 0.09

Further lines, with some results ahead:

Row | IC50, inhibition of M-NFS-60 proliferation induced by MDA-MB-231 conditioned medium [nM] | IC50, inhibition of M-NFS-60 proliferation induced by human serum (50%) [nM] | Binder | Cell viability assay (IC50), Human serum M-CSF [nM] | Cell viability assay (IC50), MDA-MB-231 [nM]
13 | 0.0724 | 0.0238 | Celine, IgG1_D265A (antibody, V domains shown) VH: QVQLQQSGPGLVKPSQTLSLTCAISGDSVSTSSAAWNWIRQSPSRGLEWLGRTYYRSKWKHEYAVSVKSRITINPDTSKNQFSLQLNSVTPEDTAVYYCARDRYYYSAFDYWGQGTLVTVSS VL: QSALTQPASVSGSPGQSITISCTGTSSDVGGYNSVSWYQQHPGKAPKLIIYAVSNRPSGVSNRFSGSKSGNTASLTISGLQAEDEADYYCASYDERFTRVFGGGTKLTVLGQ | – | –
14 | 0.0754 | 0.02 | Madeleine, IgG1_D265A (antibody, V domains shown) VH: QVQLQQSGPGLVKPSQTLSLTCAISGDSVSSNSAAWNWIRQSPSRGLEWLGRTYYRSKWKKEYAQSVKSRITINPDTSKNQFSLQLNSVTPEDTAVYYCARDRYYYSAFDYWGQGTLVTVSS VL: QSALTQPASVSGSPGQSITISCTGTSSDVGGYNSVSWYQQHPGKAPKLMIYAVSNRPSGVSNRFSGSKSGNTASLTISGLQAEDEADYYCASYDERFTRVFGGGTKLTVLGQ | – | –
15 | 0.095 | 0.0156 | Laurine, IgG1_D265A (antibody, V domains shown) VH: QVQLQQSGPGLVKPSQTLSLTCAISGDSVSSNSAAWNWIRQSPSRGLEWLGRTYYRSKWKKEYAQSVKSRITINPDTSKNQFSLQLNSVTPEDTAVYYCARDRYYYSAFDYWGQGTLVTVSS VL: DIALTQPASVSGSPGQSITISCTGTSSDVGGYNSVSWYQQHPGKAPKLMIYAVSNRPSGVSNRFSGSKSGNTASLTISGLQAEDEADYYCASYDERFTRVFGGGTKLTVLGQ | – | –
16 | 0.107 | 0.0177 | Caline, IgG1_D265A (antibody, V domains shown) VH: QVQLQQSGPGLVKPSQTLSLTCAISGDSVSSNSAAWNWIRQSPSRGLEWLGRTYYRSKWKHEYAMSVKSRITINPDTSKNQFSLQLNSVTPEDTAVYYCARDRYYYSAFDYWGQGTLVTVSS VL: QSALTQPASVSGSPGQSITISCTGTSSDVGGYNSVSWYQQHPGKAPKLMIYAVSNRPSGVSNRFSGSKSGNTASLTISGLQAEDEADYYCASYDERFTRVFGGGTKLTVLGQ | – | –
17 | 0.0985 | 0.0177 | Camille, IgG1_D265A (antibody, V domains shown) VH: QVQLQQSGPGLVKPSQTLSLTCAISGESVSTSSAAWNWIRQSPSRGLEWLGRTYYRSKWKHEYAVSVKSRITINPDTSKNQFSLQLNSVTPEDTAVYYCARDRYYYSAFDYWGQGTLVTVSS VL: QSALTQPASVSGSPGQSITISCTGTSSDVGGYNSVSWYQQHPGKAPKLLIYAVSNRPSGVSNRFSGSKSGNTASLTISGLQAEDEADYYCASYDERFTRVFGGGTKLTVLGQ | – | –
18 | 0.0769 | 0.0151 | Meriem, IgG1_D265A (antibody, V domains shown) VH: QVQLQQSGPGLVKPSQTLSLTCAISGDSVSTSSAAWNWIRQSPSRGLEWLGRTYYRSKWKKEYAQSVKSRITINPDTSKNQFSLQLNSVTPEDTAVYYCARDRYYYSAFDYWGQGTLVTVSS VL: QSALTQPASVSGSPGQSITISCTGTSSDVGGYNSVSWYQQHPGKAPKLIIYAVSNRPSGVSNRFSGSKSGNTASLTISGLQAEDEADYYCASYDERFTRVFGGGTKLTVLGQ | – | –
19 | 0.0903 | 0.0154 | HeRX1-10G1, IgG1 (antibody, V domains shown) VH: QVQLQESGPGLVKPSQTLSLTCTVSDYSITSDYAWNWIRQFPGKGLEWMGYISYSGSTSYNPSLKSRITISRDTSKNQFSLQLNSVTAADTAVYYCASFDYAHAMDYWGQGTTVTVSS VL: DIVLTQSPAFLSVTPGEKVTFTCQASQSIGTSIHWYQQKTDQAPKLLIKYASESISGIPSRFSGSGSGTDFTLTISSVEAEDAADYYCQQINSWPTTFGGGTKLEIKRT | – | –
